{"source": "the DeepSol protein solubility set"}
{"experiment": "soluble on expression in E. coli; label from the status in PepcDB or PDB records"}
{"sequence": "MDAVDATMEKLRAQCLSRGASGIQGLARFFRQLDRDGSRSLDADEFRQGLAKLGLVLDQAEAEGVCRKWDRNGSGTLDLEEFLRALRPPMSQAREAVIAAAFAKLDRSGDGVVTVDDLRGVYSGRAHPKVRSGEWTEDEVLRRFLDNFDSSEKDGQVTLAEFQDYYSGVSASMNTDEEFVAMMTSAWQL", "soluble on expression in E. coli": "not soluble"}
{"sequence": "MGSSHHHHHHGGTGENLYFQGGSGATAQNANPECVGPESPQAGIAPSCQGCPNAAICASAPKGPDPDIPLIRERLAGVKHKVMVVSGKGGVGKSTMTKELAFALGARGLSVGLMDMDICGPSLPRLTGVRGEDAHQSAGGIEPVLVDENVTMMSMHYLLSDKNEAVLFRGPRKNGVIKMFLKDVIWGNLDVLLIDTPPGTSDEHITVNSLLQQTTNGVDGAVLITTPQRVAEADVRREVNFCQKAKLPILGLVENMSGFVCPGCHKESQIFPKEEGGEGRKEGAGVRLSREFDVPLWGEVPLDPQLMKACEEGISFSEYVEKSGMTSSTTLDALFTVADQLIASLGIQVE", "soluble on expression in E. coli": "not soluble"}
{"sequence": "MFFRSKKTHFLEVDKFWTPEKIVRSSEVKRINKNTEISTQESTSTSTEYQFATLEDFQNAMAEKDQNIKKLKEEVEKLIDEQEDEIILAEMQFEIFQIKAETEARRLKKLLIMRNEDFSILKTKYEDLQKQFYDLSPYPVNGYGGILIGDETPKQEKLMDQLLDKLKVLNDGDYYDIFHLLETIDKIIVTFSLYFKDPILITKKMEDNKQIIQKLEDEVDYLTKNLESLNPSQLVTSLENKDDYLLVTVEFQKRKNILFSELKKKNEEIKMLQESFNVYQKDSIEKVMEKFLELQHQNLTVFSVDDTNSISTELNNDRNVAKNDKSEGVESLMLENFNNSLKIALNSVKREISKQNVTIKTDEDMIKDMKKTIDSNENMIKMLADELSWKTKDCQVKVSALENQIFDKNDEIVKLKSHVSTESGNSPKLERNVRELTLKISSETSSQGTSRTYPHLEQEILTFHSEKISDPSEEANQEVREFPLEQTLEKLKLEQTESLVAILEQPGGLKTMRNDPQWLQVVDHFCDYVRKIEKLEENVKEEQMNTEMIMKERTREITELYYQKRVLEKKISEQFKEIQQVKSEISRVYEANIQEIQKSFDIKLKLKDQIIGELEAVDEMSSNHTELSDGWSDLDIVQNTEELQ", "soluble on expression in E. coli": "not soluble"}
{"sequence": "MGSDKIHHHHHHMAFSFDSRIRYSEVDSSCRLSLTGLTNYFQDCSVFHSQSHDVGIRFLADNHIAWVLSSWQICINRLPLLNEQVKISTWAYGMKAFYGYRNFTLEDAGGSTLAYANSVWVLVDTRTGRPVKVPQEFADTYGLEPQLEMECAKRKLHIPDDMEKKGEIVVPQFFIDSNHHMNNEKYVMLAQQLLPNDFEISELRVEYRKEAKLGDTVISYVKYTSKSVTVVLADTDKKPYSVVEFLSKPVPGK", "soluble on expression in E. coli": "not soluble"}
{"sequence": "MNCIIAQSGGPTSVINASVYGLVKANKKLNLYENVYGGLNGIEGILNKKIINLSDLDELQLERFKNSPASGLGSCRYKLKPLSESEDEYLKLLDILNSLNIKAFFYVGGNDSMDTTAKLNAFAKAKNIDIKFFGIPKTIDNDLMHTDHTPGFGSAAKFISTAVLETYLDSKVYTNNGIFIIETMGRDTGWLAASGALATINGNKCADLVYLPERAFSVQSFLTDVARIFKEKKHVYIVASEGLKDENGKFLTETAPNDDSFGHAQLGGVGAYLKNLIIQASITHRVKSLELNTLQRCSMHASSKIDVNEAVMVGQAALEASINSEGGYMVAIRRDSSFPYKSSTFLIEADKIANNIKYFPSEWINEEGNNITEEGLLYLKPLISDFEDRDSLPLYHSFVLLEHHHHHH", "soluble on expression in E. coli": "not soluble"}
{"sequence": "AHHHHHHGSQRALVTLTPSESKRLIAKAVVAMDEVQKALKNGFIYIATGTTAAYIAEELLGEKIEKEKWTVGTISKGRTCVTPKTTWPKHLVLYKGKLFEGEPLEALKEMGPEDVFIKGGNAIDINWNVAVFAAAPDGGTIGKTFGWTITKGVFTITPISLEKFVPTPVKESAKLTGIYSFNWGTGLYAALVPIPHAHPVTEVEAYRILAGVEAIPIAAGGAGGAEGSVTLVLEGDDENMEKAKEITKAVKGEPPLEPYTEDCSICPFAKICGLGSGSF", "soluble on expression in E. coli": "not soluble"}
{"sequence": "MLTEDDIKEIRENREMIEQGRREPVTLYIKGVSEKDPITGEEIQGEPRKENVQLVWKKFTSVEKTKFADLDVKKGEALVTFPLNVDLENIEKIERKGVFYVIELIDERGLGGVNRREVIVKRVI", "soluble on expression in E. coli": "not soluble"}
{"sequence": "MTKIAESKIIVGLDIGTSKIAVVVGEVLPDGVINVLGASNCPSKGIDRGGVIDLDAAVNSIQRAIEQAESVSNCQIMGVTLAISGQHITALNESGVIPLSGTVVRKEDIDAAIHIAHSIKLPDG", "soluble on expression in E. coli": "not soluble"}
{"sequence": "MPTTQINIVLAEPRCMAGEFFNAKVLLDSSDPDTVVHSFCAEIKGIGRTGWVNIHTDKIFETEKTYIDTQVQLCDSGTCLPVGKHQFPVQIRIPLNCPSSYESQFGSIRYQMKVELRASTDQASCSEVFPLVILTRSFFDDVPLNAMSPIDFKDEVDFTCCTLPFGCVSLNMSLTRTAFRIGESIEAVVTINNRTRKGLKEVALQLIMKTQFEARSRYEHVNEKKLAEQLIEMVPLGAVKSRCRMEFEKCLLRIPDAAPPTQNYNRGAGESSIIAIHYVLKLTALPGNGVLY", "soluble on expression in E. coli": "not soluble"}
{"sequence": "MATLIYVDKENGEPGTRVVAKDGLKLGSGPSIKALDGRSQVSTPRFGKTFDAPPALPKATRKALGTVNRATEKSVKTKGPLKQKQPSFSAKKMTEKTVKAKSSVPASDDAYPEIEKFFPFNPLDFESFDLPEEHQIAHLPLSGVPLMILDEERELEKLFQLGPPSPVKMPSPPWESNLLQSPSSILSTLDVELPPVCCDIDILEHHHHHH", "soluble on expression in E. coli": "not soluble"}
{"sequence": "MTALFCLELRTNIFLIMNDCIIINYWKGFIFSFHSYFFPFRFESSLRAHYPGKRNYSDFSVIPLPYYIDVRSFHICESQHIIALPLQIPLPYRMLIRMYPV", "soluble on expression in E. coli": "soluble"}
{"sequence": "MGVTLAKGGNVSLSKAAPNLTQVMIGLGWDARSTTGAPFDLDASALLCREGRVLGDEWFVFYNQLKSPDGSVEHTGDNLTGEGEGDDESILVDLSTVPAQVDKIVFPVSIHEADNRGQTFGQVSNAFIRVVNQADGQELARYDLSEDASTETAMIFGEVYRYGGEWKFRAVGQGYASGLRGIVQDFGVSVS", "soluble on expression in E. coli": "not soluble"}
{"sequence": "MGSDKIHHHHHHCDSGSDAVSYGVGTLSLGLSANPSFSTKTRSVNEAEYKKADNYQVTVKDADGASLYNGLYKDMPLSIDLTAGKGYTVKAFYGENVNAGFDKLYVEGSQEFTVSEGEQKNVILYCKPANVKVSVVYTEDFLKYYSDCTVSLSTSHLTAPFEVNMKKDSGKDAYLKANADGEKVSITVGGFRDKEGNEVVMEALVAEKKVAPKTHLTITVDPEVITISTGTASLDVTVDTGTEDKDVNIEIPEEYWPGNASK", "soluble on expression in E. coli": "not soluble"}
{"sequence": "MGSDKIHHHHHHMKVQFLGAAQTVTGSCYMIEANGVRFAIDCGMHQGNTEIEKRNDDTEIYRPSDIAFFLVTHAHIDHTGLLPAMTRNGFTGPIYCTEPTADLLGIMLQDSAHIQEMEAEWQSRKLSRNGRIKKVEPLYTTEDATRAAEMLRPVDYGNSFEPSPGIRVTYKDAGHILGSAFLELEVTENGRPTRLVFSGDLGRPDALIVNDPQKAAPADYLFLESTYGDRDHKDPRFSRDELAEAIAYSYGNGEKVIIPAFAVERTQEVLYTLYLLHKEGRLPADMPVFVDSPLAIRATEIFRKHPKYYDDNMKKLVDSGEDPLALPNLKYTLNTQDSQALNVRSGPAVIISASGMCNAGRIKHHLRHNLWRPGASIVFVGYQGVGTPGRKIVDGNATVRLFNEDIAVKAKVFTIGSFSAHAGQSQILEWVSAFAHPQMEVFLVHGEEKAQTTLAGLLRERFNLPVSIPGYLEEVTLKPGRESLHQTDEARAHPDVDWEFLLAETEGKVAQLRKRLAGVEKRPWVEQTDIRERLVEINGELLHFLSQL", "soluble on expression in E. coli": "not soluble"}
{"sequence": "MKVFTFLLIIMVCLYNFGVRAAMDNSKHSDEAEKLLAELSARKGEGEGEGEGEGEGEGEGEPKSTVSVFYLQPEEVNTLSHQAKRGDGEAGFRLFLYYKLSNYDEEKSSQWLKIAANNGHATAQYRLYVELQEQGETKEANEWLQKIKLAASNNDSSAIWFLVNCYKNQGNKKEALQWAYKLKASKQPLDADRLIEELTKEQK", "soluble on expression in E. coli": "soluble"}
{"sequence": "MGSDKIHHHHHHMLKIYVVDNGGQWTHREWRVLRELGVDTKIVPNDIDSSELDGLDGLVLSGGAPNIDEELDKLGSVGKYIDDHNYPILGICVGAQFIALHFGASVVKAKHPEFGKTKVSVMHSENIFGGLPSEITVWENHNDEIINLPDDFTLAASSATCQVQGFYHKTRPIYATQFHPEVEHTQYGRDIFRNFIGICASYREIQKENFQH", "soluble on expression in E. coli": "soluble"}
{"sequence": "MSLKLFCFKAIIFPIVGGSFNNGTNVFQSTVIVISLDGFRADYLYRGFTPNLLSLAERNVHVPFLIPSFPSITFPNHYTIVTGLYPESHGIVSNNFFDPVTGKQFVNSMPECNKDPTWWDKGEPIWVNAERNNVRSAVHMWPGNEVENHGYRPTYSDGFNFDTTLREKKDRILEWLDLPDKDRPQLLLAYAPHVDMVGHAFGPDSPELNIIIQEVDIVIGELIEGLKKRNIDKHVNIIFLSDHGMAPTSDNRLIWLDNMFNLSAVAHRDAWPLGGFRGESDLDDEYIYESLVNYSRSSLPSAENWNVYSKKDIPSRWHYSNNERIAPVWMIPDVGWSLVSMLDHSPELEYEPLGVHGYDNLSPVMRALFIASGSSFKNFKGKKLAPFQNTEIYGILSHILDLPAQPNNGTYEGALPLRRNRNSTKEWLLKDIEQAYSKLIEGHHHHHH", "soluble on expression in E. coli": "not soluble"}
{"sequence": "MAHVVVLGAGLGGSIMAYELHQQLRSEDRITVVTRDPTYHFVPSNPWVAVGWRTRSHISADLAPTMQRLGIAFRTVPATRLVPAENRVELADGTALDYDYLVVATGPELAFDEIEGFGPEGHTQSICHVDHAEAAHAAFERFCENPGPIVVGAAQGASCFGPAYEFAFILDAALRRRRIRDRVPMTFVTSEPYIGHLGLDGVGDTKGLLESALRSRHIKWITSARISRVEAGTMHVEEVAEGGATKPHALPFGYAMMLPAFRGVKAVSGIEGLSNPRGFTLVDPHQRNPTFPNIFAVGVCVAIPPMGVTPVPVGVPKTGFMIESMVTATAHNIGALVRGKEPDEVATWNAVCLADFGDRGIAFIAQPQIPPRNVNWSAEGRWVHFAKIAFEKYFLRKVKLGTAEPLYEWAAMKMLGIDKLKAARKGLEHHHHHH", "soluble on expression in E. coli": "not soluble"}
{"sequence": "MGSDKIHHHHHHILLDYVESLVLSSVFPKRDFLSPTSNYLNGLKEVLYYQIFPERFANGDPSNDPNGSQSWDVDPAYANLGGDGFFGGDLKGIIDHFDHILELGVEAIYLNPIFESPSSHKYDTEDYLKIDDNFGNDYVFEEFISLAEDSGIKLILDGVFNHTGYDFFAFKDLREREETSPYKDWYFVKRFPIRKIQDRAMTYVGWNGYAYMPKVNSLNEGWQAYVERLVRKYNLEGIGGWRLDVATEVDPLFWSGFFRPLVKSLEKDMILVAEFWGDARSLLRGKTFDSAMNYPFKEAVIEYVFRAGNSAAKFAAMTNLYLNAYPPQTLHSLWNILDSHDTERILTLAFNQVDLLKIAVAIQMTFIGSPVIYYGDEVGMKGGKDPENRAPMLWDEEKWNWEIYDFYKTLIDLRRTHESIKDGEYEVLTAEGPVFSFRRWKDSEEVIVVINPSRENAFFNPEFEGEFCEYLSGRSISFFENKAEITPLTVWILVQED", "soluble on expression in E. coli": "not soluble"}
{"sequence": "MDPLFLLLPYISSVGKEGKFQSVKQMVMDEDYPGCSRLLQCKQGLDSLHHVADEKEVNDQKYHKYNLEKTLEWLKKKVQRTVNALKKGNISVGGGVKSSTFVRVKHEDASEEDYLRYAHGLISEYISEDLSKDLLKHLELPEISSPKEAEPPSKKRKLSDKPVEAGEDYTKFNSADFARKPPKKMTAAQKSLAKADKTGMKSLASFFSPKVKQEKN", "soluble on expression in E. coli": "not soluble"}
